Consider 29 substances from patent publication US20230038638A1, “COMPLEMENT FACTOR I-RELATED COMPOSITIONS AND METHODS” (published 2023).

In assay [1] the target is soluble human C3b (human) (UniProt P01024).
For another assay, the target named is T1, human C4b (human) (UniProt P0C0L5).
T1 sequence: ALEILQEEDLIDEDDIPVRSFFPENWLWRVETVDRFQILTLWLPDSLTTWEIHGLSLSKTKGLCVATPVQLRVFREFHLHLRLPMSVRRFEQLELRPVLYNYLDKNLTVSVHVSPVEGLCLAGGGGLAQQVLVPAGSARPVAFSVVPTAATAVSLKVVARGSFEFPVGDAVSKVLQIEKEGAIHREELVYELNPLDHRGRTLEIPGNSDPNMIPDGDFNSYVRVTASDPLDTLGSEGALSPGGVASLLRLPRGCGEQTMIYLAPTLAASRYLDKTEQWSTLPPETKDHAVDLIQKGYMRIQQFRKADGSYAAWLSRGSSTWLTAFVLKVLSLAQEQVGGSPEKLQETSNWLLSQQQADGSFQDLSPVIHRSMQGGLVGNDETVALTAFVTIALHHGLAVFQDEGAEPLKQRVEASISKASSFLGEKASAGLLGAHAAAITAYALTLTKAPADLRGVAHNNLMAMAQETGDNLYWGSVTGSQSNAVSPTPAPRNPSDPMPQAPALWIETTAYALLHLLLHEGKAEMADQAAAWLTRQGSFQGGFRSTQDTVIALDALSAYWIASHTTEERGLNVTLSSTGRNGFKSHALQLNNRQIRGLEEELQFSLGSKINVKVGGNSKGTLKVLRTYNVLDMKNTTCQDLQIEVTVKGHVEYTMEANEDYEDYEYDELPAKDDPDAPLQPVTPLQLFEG

As to “(HSA-GS)-V311-V565 - G(10) - K1-G310; C309S; C435S (enzyme)”, the iC3b Screen Ref Fold (fold vs CFI-HSA wild type) in assay [1] was 0.03. Moreover, the C4b Screen Ref Fold (fold vs CFI-HSA wild type) in the assay with human C4b (human) is 0.21.

In the case of “(HSA-GS)-V311-V565 - G(13) - K1-G310 (enzyme)”, the iC3b Screen Ref Fold (fold vs CFI-HSA wild type) in assay [1] was determined as 0.03. Further, in the assay with human C4b (human), the C4b Screen Ref Fold (fold vs CFI-HSA wild type) came to 0.34.

In the case of “(HSA-GS)-V311-V565 - G(13) - K1-G310; C309S; C435S (enzyme)”, the iC3b Screen Ref Fold (fold vs CFI-HSA wild type) in assay [1] was found to be 0.03. Further, in the assay with human C4b (human), the C4b Screen Ref Fold (fold vs CFI-HSA wild type) amounted to 0.06.

Regarding CFI-HSA A342G (enzyme), the iC3b Screen Ref Fold (fold vs CFI-HSA wild type) in assay [1] is 1.23. Further, the C4b Screen Ref Fold (fold vs CFI-HSA wild type) with human C4b (human) was 0.91.

As for CFI-HSA A366G (enzyme), the iC3b Screen Ref Fold (fold vs CFI-HSA wild type) in assay [1] is 1.46. For the same substance, in the assay with human C4b (human), the C4b Screen Ref Fold (fold vs CFI-HSA wild type) came to 0.74.

Turning to CFI-HSA A405G (enzyme), the iC3b Screen Ref Fold (fold vs CFI-HSA wild type) in assay [1] is 1.74. Further, in the assay with human C4b (human), the C4b Screen Ref Fold (fold vs CFI-HSA wild type) stood at 1.06.

Regarding CFI-HSA A502G (enzyme), the iC3b Screen Ref Fold (fold vs CFI-HSA wild type) in assay [1] is 0.09. Moreover, the C4b Screen Ref Fold (fold vs CFI-HSA wild type) with human C4b (human) turned out to be 0.06.

As to “CFI-HSA D425R; Y408L; N531G; E457G; E461Q; R462K; F464Y; E530Y (enzyme)”, the iC3b Screen Ref Fold (fold vs CFI-HSA wild type) in assay [1] worked out at 1.57. For the same substance, in the assay with human C4b (human), the C4b Screen Ref Fold (fold vs CFI-HSA wild type) was 4.98.

Turning to CFI-HSA D459G (enzyme), in assay [1], the iC3b Screen Ref Fold (fold vs CFI-HSA wild type) was 1.93. Moreover, in the assay with human C4b (human), the C4b Screen Ref Fold (fold vs CFI-HSA wild type) turned out to be 1.07.

As to CFI-HSA D501G (enzyme), in assay [1], the iC3b Screen Ref Fold (fold vs CFI-HSA wild type) was -0.04. Also, the C4b Screen Ref Fold (fold vs CFI-HSA wild type) in the assay with human C4b (human) was -0.01.

For the substance CFI-HSA D549A (enzyme), in assay [1], the iC3b Screen Ref Fold (fold vs CFI-HSA wild type) is 0.66. For the same substance, in the assay with human C4b (human), the C4b Screen Ref Fold (fold vs CFI-HSA wild type) turned out to be 1.04.

Consider CFI-HSA D549F (enzyme), for which the iC3b Screen Ref Fold (fold vs CFI-HSA wild type) in assay [1] turned out to be 0.22. The C4b Screen Ref Fold (fold vs CFI-HSA wild type) in the assay with human C4b (human) turned out to be 0.05.

With CFI-HSA D549G (enzyme), the iC3b Screen Ref Fold (fold vs CFI-HSA wild type) in assay [1] was found to be 0.86. Also, the C4b Screen Ref Fold (fold vs CFI-HSA wild type) with human C4b (human) worked out at 0.75.

Take CFI-HSA D549H (enzyme): in assay [1], the iC3b Screen Ref Fold (fold vs CFI-HSA wild type) came out at 0.73. Also, the C4b Screen Ref Fold (fold vs CFI-HSA wild type) in the assay with human C4b (human) was 0.92.

In the case of CFI-HSA D549K (enzyme), the iC3b Screen Ref Fold (fold vs CFI-HSA wild type) in assay [1] turned out to be 0.18. Moreover, in the assay with human C4b (human), the C4b Screen Ref Fold (fold vs CFI-HSA wild type) worked out at 1.

Turning to CFI-HSA D549L (enzyme), in assay [1], the iC3b Screen Ref Fold (fold vs CFI-HSA wild type) was 0.2. Also, in the assay with human C4b (human), the C4b Screen Ref Fold (fold vs CFI-HSA wild type) amounted to 0.1.

Turning to CFI-HSA D549M (enzyme), in assay [1], the iC3b Screen Ref Fold (fold vs CFI-HSA wild type) is 0.45. The C4b Screen Ref Fold (fold vs CFI-HSA wild type) with human C4b (human) was 0.23.

Turning to CFI-HSA D549N (enzyme), the iC3b Screen Ref Fold (fold vs CFI-HSA wild type) in assay [1] was determined as 1.48. The C4b Screen Ref Fold (fold vs CFI-HSA wild type) in the assay with human C4b (human) was found to be 1.08.

For the substance “CFI-HSA variant I317D-R318D-R319D-K320D-R321K (enzyme)”, in assay [1], the iC3b Screen Ref Fold (fold vs CFI-HSA wild type) turned out to be 0.03.

In the case of CFI-HSA variant K504Q (enzyme), the iC3b Screen Ref Fold (fold vs CFI-HSA wild type) in assay [1] came out at 0.64.

As to “CFI-HSA variant N446Q; N476Q; N518Q (enzyme)”, in assay [1], the iC3b Screen Ref Fold (fold vs CFI-HSA wild type) came to 0.06.

Turning to “CFI-HSA variant T346R; K504E; E530R (enzyme)”, the iC3b Screen Ref Fold (fold of reference) in assay [1] came out at 0.51.

As for CFI-HSA variant Y408D (enzyme), the iC3b Screen Ref Fold (fold vs CFI-HSA wild type) in assay [1] was found to be 0.02.

Turning to CFI-HSA variant Y408E (enzyme), the iC3b Screen Ref Fold (fold of reference) in assay [1] is 0.23.

With CFI-HSA variant Y408K (enzyme), the iC3b Screen Ref Fold (fold vs CFI-HSA wild type) in assay [1] was 0.65.

As for CFI-HSA variant Y408T (enzyme), the iC3b Screen Ref Fold (fold vs CFI-HSA wild type) in assay [1] was found to be 0.04.

As for CFI-HSA variant Y408V (enzyme), the iC3b Screen Ref Fold (fold of reference) in assay [1] turned out to be 0.

For CFI-HSA variant Y408W (enzyme), in assay [1], the iC3b Screen Ref Fold (fold of reference) stood at 0.82.

As to CFI-HSA variant Y4081 (enzyme), the iC3b Screen Ref Fold (fold vs CFI-HSA wild type) in assay [1] was 0.03.
